Measured values as given in patent publication US10221439B2, “Sensors, methods and kits for detecting nicotinamide adenine dinucleotides” (Max-Planck-Gesellschaft zur Förderung der Wissenschaften …, priority 2015, dated 2019).

Test: Titration of NAD-specific FRET sensor with NAD^+ and NADP^+
Type: binding
Experimental: In order to evaluate, that these mutations were sufficient to fully switch the specificity of the cofactor binding site of SPR from NADP(H) to NAD(H), we prepared titration experiments according to the similar procedure explained herein (example 3). The labelled sensor were diluted in buffer solution containing defined concentrations of NAD^+ and NADP^+ and measure with the fluorimeter (TECAN) (FIG. 4).

B1: SPR mutant with Asp^41 and Ala^42: initial trial SPR mutant sensor for NAD^+ (conjugate, UniProt P35270 1-261, looked up, variant A41D R42A)
Sepiapterin reductase: MEGGLGRAVCLLTGASRGFGRTLAPLLASLLSPGSVLVLSDANDEALRQLEAELGAERSGLRVVRVPADLGAEAGLQQLLGALRELPRPKGLQRLLLINNAGSLGDVSKGFVDLSDSTQVNNYWALNLTSMLCLTSSVLKAFPDSPGLNRTVVNISSLCALQPFKGWALYCAGKAARDMLFQVLALEEPNVRVLNYAPGPLDTDMQQLARETSVDPDMRKGLQELKAKGKLVDCKVSAQKLLSLLEKDEFKSGAHVDFYDK
For B1, which “affinity and specificity for NAD^+” value is on record?
Its value is “low affinity, but high specificity for NAD^+”.
